Measurements reported in patent US20240010753A1 (EPIMAB BIOTHERAPEUTICS HK, published 2024).
Residue numbers refer to the chain shown, from its start. Each block holds one binder with its values, some of them ahead of it.

Experiments:
[1] = molecular target: T1, recombinant human ROR1-ECD protein (human, UniProt Q01973 30-406); test: BLI (Octet RED96), FIT-Ig captured on anti-hIgG Fc sensors, ROR1 ECD at 10 ug/ml; off-rate relative to FIT1007-12B
T1 construct: also called human ROR1 extracellular domain
Method: The ROR1/CD3 FIT-Ig proteins were assayed for and ranked by dissociation rate constant (koff, “off-rate”) using an Octet®RED96 biolayer interferometry (Pall FortéBio LLC). Anti-hIgG Fc Capture (AHC) Biosensors (Pall) were first exposed to antibody at a concentration of 100 nM for 30 seconds to capture antibody, then dipped into running buffer (1× pH 7.2 PBS, 0.05% Tween 20, 0.1% BSA) for 60 seconds to check baseline. Sensors with captured antibody were dipped into recombinant human ROR1 ECD protein at 10 ug/ml for 5 minutes to measure association, followed by dipped into running buffer for 1200 seconds to measure dissociation. The association and dissociation curves were fitted to a 1:1 Langmuir binding model using ForteBio Data Analysis software (Pall). The off-rate ratios were calculated by the off-rate of antibody to that of FIT1007-12B. Lower ratio indicates slower dissociation of the antibody in comparison with the parental chimeric antibody FIT1007-12B.

human ROR1 on cells = molecular target: T2, human ROR1 on cells (human, UniProt Q01973 30-937); test: flow cytometry on MDA-MB-231 cells, MFI
T2 construct: whole, on cells; the cell line is named under assay; also called CHO-ROR1; CHOK1-ROR1

human CD3 on cells = molecular target: T3, human CD3 on cells (human, UniProt P07766 23-207; P04234 22-171; P09693 23-182; P20963 22-164); test: flow cytometry on CHO-CD3-TCR cells, MFI
T3 construct: the cell line is named under assay; also called human TCR/CD3 complex; CHO-CD3-TCR
Method: Briefly, 5×10⁵ cells were seeded into each well of a 96-well plate. Cells were centrifuged at 400 g for 5 minutes and supernatants were discarded. For each well, […] of serially diluted antibodies were then added and mixed with the cells. After 40 minutes of incubation at 4° C., plates were washed several times to remove excess antibodies. Secondary fluorochrome-conjugated goat anti-human IgG antibody was then added and incubated with cells at room temperature for 20 minutes. After another round of centrifugation and a washing step, cells were resuspended in FACS buffer for reading on a CytoFLEX Flow Cytometer (Beckman Coulter). Median Fluorescence Intensity (MFI) readouts were plotted against antibody concentration and analyzed with GraphPad Prism 6.0 software.

[2] = molecular target: T1, recombinant human ROR1-ECD protein; test: competition ELISA: biotinylated ROR1-ECD pre-mixed with the row's antibody; competitor coated on the plate: ROR1-Tab2
Method: (§1) The binding epitope of ROR1 antibodies were identified with a competition ELISA. Briefly, 96 well plates were coated with 1 ug/mL purified antibodies and incubated overnight at 4° C. After washing with PBS containing 0.05% Tween 20, plates were blocked with blocking buffer (PBS containing 0.05% Tween 20 and 2% BSA) at 37° C. for 2 hours. Biotinylated human ROR1-ECD protein pre-mixed with ROR1 antibody (sample) or irrelevant mouse IgG (baseline) was added into plate wells and incubated at 37° C. for 1 hour before being washed 3 times. Streptavidin-HRP (1:5000 dilution) was then added into each well and incubated at 37° C. for 1 hour before being washed another 3 times. Tetramethylbenzidine (TMB) chromogenic solution was added for color development for 5 minutes then the reaction was stopped with 1M HCl. Absorbance at 450 nm (OD₄₅₀) was measured on a microplate reader. The OD450baseline represents the level of human ROR1-ECD binding to ROR1 antibodies at absence of competition, while the difference between OD450baseline and OD450ₛₐₘₚₗₑ reflects the competition between the ROR1 antibody coated on plate and the antibody in solution. The inhibition percentage was calculated by following equation: […]

[3] = molecular target: T1, recombinant human ROR1-ECD protein; test: competition ELISA: biotinylated ROR1-ECD pre-mixed with the row's antibody; competitor coated on the plate: ROR1-mAb004
Method: as §1

[4] = molecular target: T1, recombinant human ROR1-ECD protein; test: BLI (Octet RED96), antibody captured on anti-mouse IgG Fc sensors, ROR1-ECD in solution, 25 C, 1:1 fit
Method: Briefly, Anti-Mouse IgG Fc Capture (AMC) Biosensors were used to capture purified anti-ROR1 antibodies. Sensors were then dipped into solutions containing recombinant human ROR1-ECD protein to detect target protein binding to the captured antibodies. Kinetics constants were determined by processing and fitting data to a 1:1 binding model using Fortebio analysis software. Shown below in Table 2 are the results obtained for ROR1-mAb004 in comparison with two previously described anti-ROR1 monoclonal antibodies, ROR1-Tab1 is clone R12 as described in WO2014167022, and ROR1-Tab2 is clone D10 as described in WO2012097313.

[5] = molecular target: T1, recombinant human ROR1-ECD protein; test: competition ELISA: biotinylated ROR1-ECD pre-mixed with the row's antibody; competitor coated on the plate: ROR1-Tab1
Method: as §1

T1 sequence (Q01973 30-406): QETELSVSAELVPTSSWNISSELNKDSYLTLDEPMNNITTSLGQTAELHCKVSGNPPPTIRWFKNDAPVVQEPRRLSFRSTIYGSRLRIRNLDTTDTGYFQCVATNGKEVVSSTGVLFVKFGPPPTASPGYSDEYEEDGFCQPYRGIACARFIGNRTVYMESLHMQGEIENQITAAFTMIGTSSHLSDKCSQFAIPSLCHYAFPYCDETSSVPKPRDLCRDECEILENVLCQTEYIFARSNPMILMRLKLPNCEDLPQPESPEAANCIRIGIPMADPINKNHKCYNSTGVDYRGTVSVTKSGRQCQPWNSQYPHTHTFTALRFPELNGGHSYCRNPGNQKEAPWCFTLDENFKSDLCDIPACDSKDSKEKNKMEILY
T3 sequence (P07766 23-207 limits assumed, chain 1 of 4): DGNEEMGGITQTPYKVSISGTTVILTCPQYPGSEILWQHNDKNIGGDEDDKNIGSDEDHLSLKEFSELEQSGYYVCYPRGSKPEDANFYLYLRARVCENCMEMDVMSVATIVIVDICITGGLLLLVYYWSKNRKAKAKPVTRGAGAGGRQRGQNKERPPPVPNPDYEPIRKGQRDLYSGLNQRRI
T3 sequence (P04234 22-171 limits assumed, chain 2 of 4): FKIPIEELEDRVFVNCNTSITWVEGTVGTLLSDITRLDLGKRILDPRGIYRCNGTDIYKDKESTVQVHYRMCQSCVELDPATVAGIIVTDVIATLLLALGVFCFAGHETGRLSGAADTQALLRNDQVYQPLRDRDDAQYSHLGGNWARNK
T3 sequence (P09693 23-182 limits assumed, chain 3 of 4): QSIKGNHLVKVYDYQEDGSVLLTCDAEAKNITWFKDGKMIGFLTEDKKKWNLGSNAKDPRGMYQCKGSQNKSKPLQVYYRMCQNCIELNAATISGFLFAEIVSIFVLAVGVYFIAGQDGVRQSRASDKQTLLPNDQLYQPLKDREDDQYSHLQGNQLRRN
T3 sequence (P20963 22-164 limits assumed, chain 4 of 4): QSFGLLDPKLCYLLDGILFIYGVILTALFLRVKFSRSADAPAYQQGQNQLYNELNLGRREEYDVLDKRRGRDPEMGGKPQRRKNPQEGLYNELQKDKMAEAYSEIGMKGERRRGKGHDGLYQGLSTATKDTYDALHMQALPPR
T2 sequence (Q01973 30-937): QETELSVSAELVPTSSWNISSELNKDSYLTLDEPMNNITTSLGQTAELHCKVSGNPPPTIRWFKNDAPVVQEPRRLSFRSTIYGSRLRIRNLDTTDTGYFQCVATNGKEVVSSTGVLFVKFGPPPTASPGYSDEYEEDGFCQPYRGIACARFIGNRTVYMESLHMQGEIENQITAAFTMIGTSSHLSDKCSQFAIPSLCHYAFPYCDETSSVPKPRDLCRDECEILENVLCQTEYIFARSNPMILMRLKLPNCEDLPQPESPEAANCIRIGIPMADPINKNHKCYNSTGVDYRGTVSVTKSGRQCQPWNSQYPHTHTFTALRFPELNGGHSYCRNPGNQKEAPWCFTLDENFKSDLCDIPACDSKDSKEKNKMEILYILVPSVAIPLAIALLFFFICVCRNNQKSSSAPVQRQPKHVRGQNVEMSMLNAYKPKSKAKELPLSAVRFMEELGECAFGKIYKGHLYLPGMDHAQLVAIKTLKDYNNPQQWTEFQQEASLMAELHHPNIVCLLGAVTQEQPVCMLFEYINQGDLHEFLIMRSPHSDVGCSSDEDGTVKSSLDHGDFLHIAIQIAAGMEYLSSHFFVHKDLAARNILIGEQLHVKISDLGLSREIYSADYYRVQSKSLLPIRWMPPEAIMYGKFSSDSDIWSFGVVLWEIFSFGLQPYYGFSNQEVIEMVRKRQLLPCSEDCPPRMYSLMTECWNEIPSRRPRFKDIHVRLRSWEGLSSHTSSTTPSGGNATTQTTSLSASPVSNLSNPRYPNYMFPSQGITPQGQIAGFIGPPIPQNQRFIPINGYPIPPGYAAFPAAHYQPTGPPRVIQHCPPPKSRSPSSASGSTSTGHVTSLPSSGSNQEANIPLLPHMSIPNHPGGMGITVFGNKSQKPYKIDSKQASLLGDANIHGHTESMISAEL

Off-rate Ratio [1]: 28.5%
B1: FIT1007-12B-5 (bispecific antibody, human IgG1, kappa, L234A L235A)
chain 1: not shown
chain 2: EVQLVQSGAEVKKPGSSVKVSCKASGYTFSRSWMNWVRQAPGQGLEWIGRIYPGNGDIKYNGNFKGRATITADKSTSTAYMELSSLRSEDTAVYYCAHIYYDFYYALDYWGQGTTVTVSSASTKGPSVFPLAPSSKSTSGGTAALGCLVKDYFPEPVTVSWNSGALTSGVHTFPAVLQSSGLYSLSSVVTVPSSSLGTQTYICNVNHKPSNTKVDKKVEPKSC
chain 3: not shown
notes: ROR1xCD3 FIT-Ig, same build as FIT1007-12B-1, no linkers

Off-rate Ratio [1]: 35.9%
B2: FIT1007-12B-4 (bispecific antibody, human IgG1, kappa, L234A L235A)
chain 1: not shown
chain 2: B1 chain 2 with I48M, A68V
chain 3: not shown
notes: as for B1

Off-rate Ratio [1]: 36.7%
B3: FIT1007-12B-10 (bispecific antibody, human IgG1, kappa, L234A L235A)
chain 1: not shown
chain 2: B1 chain 2 with I48M, A68V
chain 3: not shown
notes: as for B1

Off-rate Ratio [1]: 11.9%
B4: FIT1007-12B-3 (bispecific antibody, human IgG1, kappa, L234A L235A)
chain 1: not shown
chain 2: B1 chain 2 with R38K, R67K
chain 3: not shown
notes: as for B1

Off-rate Ratio [1]: 5.25%
B5: FIT1007-12B-1 (bispecific antibody, human IgG1, kappa, L234A L235A)
chain 1: not shown
chain 2: B1 chain 2 with I48M, A68V
chain 3: not shown
notes: ROR1xCD3 FIT-Ig, chain #1 VL(ROR1)-CL-VH(CD3)-CH1-hinge-CH2-CH3, chain #2 VH(ROR1)-CH1, chain #3 VL(CD3)-CL, no linkers

Off-rate Ratio [1]: 28.9%
B6: FIT1007-12B-11 (bispecific antibody, human IgG1, kappa, L234A L235A)
chain 1: not shown
chain 2: B1 chain 2
chain 3: not shown
notes: as for B1

Off-rate Ratio [1]: 25.2%
B7: FIT1007-12B-12 (bispecific antibody, human IgG1, kappa, L234A L235A)
chain 1: not shown
chain 2: B1 chain 2 with R38K, R67K
chain 3: not shown
notes: as for B1

Off-rate Ratio [1]: 25.8%
B8: FIT1007-12B-6 (bispecific antibody, human IgG1, kappa, L234A L235A)
chain 1: not shown
chain 2: B1 chain 2 with R38K, R67K
chain 3: not shown
notes: as for B1

Off-rate Ratio [1]: 7.87%
B9: FIT1007-12B-2 (bispecific antibody, human IgG1, kappa, L234A L235A)
chain 1: not shown
chain 2: B1 chain 2
chain 3: not shown
notes: as for B1

Off-rate Ratio [1]: 13.6%
B10: FIT1007-12B-7 (bispecific antibody, human IgG1, kappa, L234A L235A)
chain 1: not shown
chain 2: B1 chain 2 with I48M, A68V
chain 3: not shown
notes: as for B1

Off-rate Ratio [1]: 12%
B11: FIT1007-12B-9 (bispecific antibody, human IgG1, kappa, L234A L235A)
chain 1: not shown
chain 2: B1 chain 2 with R38K, R67K
chain 3: not shown
notes: as for B1

Off-rate Ratio [1]: 15.4%
B12: FIT1007-12B-8 (bispecific antibody, human IgG1, kappa, L234A L235A)
chain 1: not shown
chain 2: B1 chain 2
chain 3: not shown
notes: as for B1

EC50 (read off the curve) (human ROR1 on cells): ~0.5 nM
B13: D10 x CD3 FIT-Ig (bispecific antibody, human IgG1, kappa, L234A L235A)
chain 1: not shown
chain 2: QVQLKESGPGLVAPSQTLSITCTVSGFSLTSYGVHWVRQPPGKGLEWLGVIWAGGFTNYNSALKSRLSISKDNSKSQVLLKMTSLQTDDTAMYYCARRGSSYSMDYWGQGTSVTVSSASTKGPSVFPLAPSSKSTSGGTAALGCLVKDYFPEPVTVSWNSGALTSGVHTFPAVLQSSGLYSLSSVVTVPSSSLGTQTYICNVNHKPSNTKVDKKVEPKSC
chain 3: not shown

EC50 (read off the curve) (human ROR1 on cells): ~0.4 nM
B14: R12 x CD3 FIT-Ig (bispecific antibody, human IgG1, kappa, lambda, L234A L235A)
chain 1: not shown
chain 2: QEQLVESGGRLVTPGGSLTLSCKASGFDFSAYYMSWVRQAPGKGLEWIATIYPSSGKTYYATWVNGRFTISSDNAQNTVDLQMNSLTAADRATYFCARDSYADDGALFNIWGPGTLVTISSASTKGPSVFPLAPSSKSTSGGTAALGCLVKDYFPEPVTVSWNSGALTSGVHTFPAVLQSSGLYSLSSVVTVPSSSLGTQTYICNVNHKPSNTKVDKKVEPKSC
chain 3: not shown

Off-rate Ratio [1]: 89.1%
B15: FIT1007-12B-13 (bispecific antibody, human IgG1, kappa, L234A L235A)
chain 1: not shown
chain 2: QVQLQQSGPELVKPGASVKISCKASGYAFSRSWMNWVKQRPEKGLEWIGRIYPGNADIKYNANFKGKATLTADKSSSTAYMQLSSLTSEDSAVYFCAHIYYDFYYALDYWGQGTSVTVSSASTKGPSVFPLAPSSKSTSGGTAALGCLVKDYFPEPVTVSWNSGALTSGVHTFPAVLQSSGLYSLSSVVTVPSSSLGTQTYICNVNHKPSNTKVDKKVEPKSC
chain 3: not shown
notes: Chimeric ROR1 arm with CDR-H2 point mutations (AA); ROR1xCD3 FIT-Ig, no linkers

Off-rate Ratio [1]: 139%
B16: FIT1007-12B-16 (bispecific antibody, human IgG1, kappa, L234A L235A)
chain 1: not shown
chain 2: B15 chain 2 with N55Q, A56G
chain 3: not shown
notes: Chimeric ROR1 arm with CDR-H2 point mutations (QA); ROR1xCD3 FIT-Ig, no linkers

EC50 (read off the curve) (human CD3 on cells): ~0.3 nM
B17: HuEM0006-01-24 (antibody, V domains shown)
VH: EVQLVQSGAEVKKPGASVKVSCKASGFSFTNYYVHWMRQAPGQGLEWMGWISPGSDNTKYNEKFKGRVTMTRDTSISTAYMELSRLRSDDTAVYYCARDDYGNYYFDYWGQGTTVTVSS
VL: DIVMTQSPDSLAVSLGERATINCKSSQSLLNARTRKNYLAWYQQKPGQPPKLLIYWASTRESGVPDRFSGSGSGTDFTLTISSLQAEDVAVYYCKQSYILRTFGGGTKVEIK
notes: only the variable domains are tied to it; also called HuEM1006-01-24

EC50 (read off the curve) (human CD3 on cells): ~2 nM
B18: HuEM0006-01-27 (antibody, V domains shown)
VH: B17 VH with M48I, M70L, R72A
VL: B17 VL
notes: only the variable domains are tied to it; also called HuEM1006-01-27

Inhibition % [2]: 92%
Inhibition % [3]: 56%
Kd [4]: 98.8 nM
koff [4]: 0.0321 s⁻¹
kon [4]: 325000 M⁻¹ s⁻¹
Inhibition % [5]: -21%
B19: ROR1-Tab2 (antibody, V domains shown)
VH: QVQLKESGPGLVAPSQTLSITCTVSGFSLTSYGVHWVRQPPGKGLEWLGVIWAGGFTNYNSALKSRLSISKDNSKSQVLLKMTSLQTDDTAMYYCARRGSSYSMDYWGQGTSVTVSS
VL: EIVLSQSPAITAASLGQKVTITCSASSNVSYIHWYQQRSGTSPRPWIYEISKLASGVPVRFSGSGSGTSYSLTISSMEAEDAAIYYCQQWNYPLITFGSGTKLEIQ
notes: also called clone D10; D10 as described in WO2012097313
